Assays:
[1] = target: T1, BRD3 SBC motif-deleted mutant (human, UniProt Q15059 1-726, limits assumed); experiment: co-IP with anti-FLAG antibody, 293T cells
T1 construct: Deletion mutant; also called FLAG-BRD3 mutant; not shown: FLAG tag

[2] = target: T2, BRD4 SBC motif-deleted mutant (human, UniProt O60885 1-1362, limits assumed); experiment: co-IP with anti-FLAG antibody, 293T cells
T2 construct: Deletion mutant; also called FLAG-BRD4 mutant; not shown: FLAG tag

[3] = target: T3, BRD2 SBC motif-deleted mutant (human, UniProt P25440 1-801, limits assumed); experiment: co-IP with anti-FLAG antibody, 293T cells
T3 construct: Deletion mutant; also called FLAG-BRD2 mutant; not shown: FLAG tag

BRD2 = target: T4, BRD2 (human, UniProt P25440 1-801); experiment: co-immunoprecipitation, 293T (ectopic) and LNCaP (endogenous) cells
T4 construct: also called bromodomain containing 2; FLAG-BRD2
Procedure: (§1) To immunoprecipitate the ectopically expressed FLAG-tagged proteins, transfected cells were lysed 24 hours post-transfection in BC100 buffer. The whole-cell lysates were immunoprecipitated with the monoclonal anti-FLAG antibody-conjugated M2 agarose beads (Sigma-Aldrich) at 4° C. overnight. After three washes with lysis buffer, followed by two washes with BC100 buffer, the bound proteins were eluted using FLAG-Peptide (Sigma-Aldrich) prepared in BC100 for 3 hours at 4° C. The eluted protein sample was resolved by SDS-PAGE. To immunoprecipitate the endogenous proteins, cells were lysed with 1× cell lysis buffer (Cell Signaling Technology), and the lysate was centrifuged. The supernatant was precleared with protein AIG beads (Sigma-Aldrich) and incubated with the indicated antibody and protein A/G beads at 4° C. overnight. Beads were washed five times with lysis buffer and resuspended in sample buffer and analyzed by SDS-PAGE.
(§2) To identify new degradation substrates of SPOP, yeast two-hybrid screens using the full-length SPOP as bait were performed.

BRD3 = target: T5, BRD3 (human, UniProt Q15059 1-726); experiment: as above
T5 construct: also called bromodomain containing 3; FLAG-BRD3
Procedure: as §1, §2

- binding result [1]: no binding
- binding result [2]: no binding
- binding result [3]: no binding
- binding result (BRD2): binds
- binding result (BRD3): binds
B1: SPOP, wild-type (other, human, UniProt O43791 1-374, looked up)
chain: MSRVPSPPPPAEMSSGPVAESWCYTQIKVVKFSYMWTINNFSFCREEMGEVIKSSTFSSGANDKLKWCLRVNPKGLDEESKDYLSLYLLLVSCPKSEVRAKFKFSILNAKGEETKAMESQRAYRFVQGKDWGFKKFIRRDFLLDEANGLLPDDKLTLFCEVSVVQDSVNISGQNTMNMVKVPECRLADELGGLWENSRFTDCCLCVAGQEFQAHKAILAARSPVFSAMFEHEMEESKKNRVEINDVEPEVFKEMMCFIYTGKAPNLDKMADDLLAAADKYALERLKVMCEDALCSNLSVENAAEILILADLHSADQLKTQAVDFINYHASDVLETSGWKSMVVSHPHLVAEAYRSLASAQCPFLGPPRKRLKQS
notes: also called SPOP-WT; Myc-SPOP

Reference: patent publication US20210361653A1 (MAYO FOUNDATION FOR MEDICAL EDUCATION AND RESEARCH, published 2021)
